Experimental data published in publication PMC6447637.

Columns and labels:
[1] = target: NaV1.4 CTerm Long (residues 1599–1764), freed of CaM for ITC (human) (UniProt P35499); assay: ITC; Ca2+-saturating: CTerm (2–25 µM) in the sample cell, CaM, CaM12 or CaM34 (30–1000 µM) as titrant; 20 mM MOPS, 150 mM NaCl, 1 mM MgCl2, 50 µM EGTA with 1 mM CaCl2; VP-ITC, single binding site fit, one replicate
[2] = target: NaV1.5 CTerm Long (not stated (human or rat cDNA cloned)); assay: as above
[3] = target: NaV1.4 CTerm Short (residues 1599–1754), freed of CaM for ITC (human) (UniProt P35499); assay: as above
[4] = target: NaV1.5 CTerm Long (not stated (human or rat cDNA cloned)); assay: as above; remark: listed apart in the source
[5] = target: NaV1.5 CTerm Long (not stated (human or rat cDNA cloned)); assay: ITC; Ca2+-free: CTerm (2–25 µM) in the sample cell, CaM (30–1000 µM) as titrant; 20 mM MOPS, 150 mM NaCl, 1 mM MgCl2, 50 µM EGTA; VP-ITC, single binding site fit, one replicate

Row | Kd [1] | Kd [3] | Substance | Kd [2] | Kd [4] | Kd [5]
1 | 121 nM | 282 nM | CaM34 (D93A, D129A; C lobe Ca^2+ binding disabled) (natural protein) | 90 nM | – | –
2 | 154 nM | 156 nM | CaM12 (D20A, D56A; N lobe Ca^2+ binding disabled) (natural protein) | 3600 nM | – | –
3 | – | – | calmodulin (full-length mammalian calmodulin, R. norvegicus CALM2) (from UniProt P0DP30 1-149) (natural protein) | 89 nM | 70 nM | 48 nM
